Assay results published in patent US20250000991A1 (Eli Lilly, published 2025).

T1: human Nectin-4-eGFP on T24 cells (clone 3) (human, UniProt Q96NY8 32-510)
T1 sequence: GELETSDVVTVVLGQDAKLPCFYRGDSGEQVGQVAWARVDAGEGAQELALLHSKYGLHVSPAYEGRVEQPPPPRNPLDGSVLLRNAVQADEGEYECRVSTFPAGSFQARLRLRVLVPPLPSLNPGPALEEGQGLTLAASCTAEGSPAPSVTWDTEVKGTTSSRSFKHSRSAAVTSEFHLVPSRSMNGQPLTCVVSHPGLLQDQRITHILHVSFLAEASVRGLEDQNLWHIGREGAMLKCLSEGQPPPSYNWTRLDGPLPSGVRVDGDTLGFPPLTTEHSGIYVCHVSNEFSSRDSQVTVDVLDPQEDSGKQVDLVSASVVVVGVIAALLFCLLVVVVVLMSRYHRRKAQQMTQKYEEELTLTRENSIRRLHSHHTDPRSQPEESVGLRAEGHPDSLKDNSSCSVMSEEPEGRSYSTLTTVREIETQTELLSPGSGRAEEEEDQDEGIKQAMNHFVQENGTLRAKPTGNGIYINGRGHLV

T2: human nectin-4 on cells (human, UniProt Q96NY8 32-510)
T2 construct: also called Nectin-4 receptor
T2 sequence: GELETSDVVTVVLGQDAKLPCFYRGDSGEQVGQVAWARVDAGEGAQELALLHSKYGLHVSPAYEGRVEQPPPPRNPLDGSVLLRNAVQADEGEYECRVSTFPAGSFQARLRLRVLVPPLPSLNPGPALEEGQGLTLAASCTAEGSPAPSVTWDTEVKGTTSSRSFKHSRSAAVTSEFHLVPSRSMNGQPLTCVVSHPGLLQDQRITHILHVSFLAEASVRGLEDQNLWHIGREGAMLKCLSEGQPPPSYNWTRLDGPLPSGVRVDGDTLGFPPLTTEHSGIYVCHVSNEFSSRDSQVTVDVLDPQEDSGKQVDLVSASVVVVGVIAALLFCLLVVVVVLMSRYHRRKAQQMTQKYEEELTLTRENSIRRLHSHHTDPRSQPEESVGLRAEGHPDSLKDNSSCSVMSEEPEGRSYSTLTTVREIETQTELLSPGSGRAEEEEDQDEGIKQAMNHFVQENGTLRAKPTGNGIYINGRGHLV

T3: recombinant HIS-tagged human nectin-4 (Acro Biosystems Cat. No. NE4-H52H3) (human, UniProt Q96NY8 32-349)
T3 construct: Bought protein; not shown: HIS tag
T3 sequence: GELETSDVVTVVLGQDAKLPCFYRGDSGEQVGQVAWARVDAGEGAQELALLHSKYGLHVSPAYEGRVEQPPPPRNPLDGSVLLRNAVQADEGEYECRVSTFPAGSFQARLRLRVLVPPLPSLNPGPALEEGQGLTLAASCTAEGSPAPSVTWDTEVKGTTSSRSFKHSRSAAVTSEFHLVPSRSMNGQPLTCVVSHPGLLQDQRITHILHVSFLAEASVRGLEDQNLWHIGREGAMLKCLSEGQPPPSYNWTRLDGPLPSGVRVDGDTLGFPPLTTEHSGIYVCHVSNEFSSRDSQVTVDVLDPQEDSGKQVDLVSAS

T4: recombinant HIS-tagged rat nectin-4 (R&D Systems Cat. No. 9997-N4-050) (rat, UniProt D3ZET1 31-348)
T4 construct: Bought protein; HIS tag not described
T4 sequence: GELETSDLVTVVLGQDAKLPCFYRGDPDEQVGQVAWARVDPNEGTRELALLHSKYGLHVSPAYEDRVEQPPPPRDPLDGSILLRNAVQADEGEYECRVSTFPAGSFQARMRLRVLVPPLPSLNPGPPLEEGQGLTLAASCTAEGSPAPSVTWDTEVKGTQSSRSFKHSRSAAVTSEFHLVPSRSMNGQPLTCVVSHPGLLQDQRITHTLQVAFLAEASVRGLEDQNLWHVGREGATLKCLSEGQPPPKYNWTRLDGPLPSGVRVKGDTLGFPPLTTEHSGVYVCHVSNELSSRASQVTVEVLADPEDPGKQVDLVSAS

T5: recombinant HIS-tagged cyno nectin-4 (Acro Biosystems Cat. No. NE4-C52H4) (cyno, UniProt A0A2K5WES1 32-349)
T5 construct: Bought protein; HIS tag not described
T5 sequence: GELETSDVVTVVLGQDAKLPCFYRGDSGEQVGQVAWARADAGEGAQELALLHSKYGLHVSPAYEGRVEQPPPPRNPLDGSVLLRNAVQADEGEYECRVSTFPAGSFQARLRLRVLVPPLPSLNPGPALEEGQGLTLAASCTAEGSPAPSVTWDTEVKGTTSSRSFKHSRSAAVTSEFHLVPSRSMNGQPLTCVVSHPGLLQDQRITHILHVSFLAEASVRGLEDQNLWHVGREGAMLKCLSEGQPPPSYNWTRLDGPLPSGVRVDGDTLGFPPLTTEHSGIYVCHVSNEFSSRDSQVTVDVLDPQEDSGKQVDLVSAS


Key:
[1] = target: T1, human Nectin-4-eGFP on T24 cells (clone …); assay: cell-based or functional assay
human nectin-4 on cells [2] = target: T2, human nectin-4 on cells; assay: flow cytometry, SUM190PT cells (high endogenous nectin-4)
human nectin-4 on cells [3] = target: T2, human nectin-4 on cells; assay: flow cytometry, differentiated normal human epidermal keratinocytes (HEKα)
human nectin-4 on cells [4] = target: T2, human nectin-4 on cells; assay: flow cytometry, NCI-H1781 cells (low endogenous nectin-4)
human nectin-4 on cells [5] = target: T2, human nectin-4 on cells; assay: cell-based or functional assay
[6] = target: T3, recombinant HIS-tagged human nectin-4 …; assay: SPR Biacore 8K+, ADC captured via anti-human Fc, nectin-4 analyte, 37 C; replicate 1 of 2
[7] = target: T4, recombinant HIS-tagged rat nectin-4 …; assay: SPR Biacore 8K+, ADC captured via anti-human Fc, nectin-4 analyte, 37 C;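 further: Nectin-4 injected over captured ADC at 0 to 600 nM for 2 min association, then 10 min dissociation, with a reference flow cell lacking ADC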
[8] = target: T5, recombinant HIS-tagged cyno nectin-4 …; assay: as above
[9] = target: T3, recombinant HIS-tagged human nectin-4 …; assay: SPR Biacore 8K+, ADC captured via anti-human Fc, nectin-4 analyte, 37 C; replicate 2 of 2
[10] = target: T3, recombinant HIS-tagged human nectin-4 …; assay: SPR Biacore 8K+, ADC captured via anti-human Fc, nectin-4 analyte, 37 C;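 further: Nectin-4 injected over captured ADC at 0 to 600 nM for 2 min association, then 10 min dissociation, with a reference flow cell lacking ADC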

| Binder | % activity (max GFP signal loss compared to enfortumab mAb (100%)) [1] | EC50 (nM) of nectin-4-eGFP signal loss [1] | Cytotoxicity IC50, NCI H1781 cells (human nectin-4 on cells [5]) | Cytotoxicity IC50, T24 Nectin-4 clone 108 cells (human nectin-4 on cells [5]) | Kd [6] | koff [6] | kon [6] | Kd [7] | koff [7] | kon [7] | Kd [8] | koff [8] | kon [8] | Kd [9] | koff [9] | kon [9] | Kd [10] | koff [10] | kon [10] | further results |
| --- | --- | --- | --- | --- | --- | --- | --- | --- | --- | --- | --- | --- | --- | --- | --- | --- | --- | --- | --- | --- |
| enfortumab (antibody, V domains shown) VH: EVQLVESGGGLVQPGGSLRLSCAASGFTFSSYNMNWVRQAPGKGLEWVSYISSSSSTIYYADSVKGRFTISRDNAKNSLSLQMNSLRDEDTAVYYCARAYYYGMDVWGQGTTVTVSS VL: DIQMTQSPSSVSASVGDRVTITCRASQGISGWLAWYQQKPGKAPKFLIYAASTLQSGVPSRFSGSGSGTDFTLTISSLQPEDFATYYCQQANSFPPTFGGGTKVEIKR | 97% | 2.13 nM |  |  |  |  |  |  |  |  |  |  |  |  |  |  |  |  |  | % of enfortumab (Average Max MFI) (human nectin-4 on cells [2]): 100%; Average Max MFI (human nectin-4 on cells [2]): 1.1e+06 MFI; EC50 (human nectin-4 on cells [2]): 0.11 nM; EC50 (human nectin-4 on cells [3]): 0.06 nM; % of enfortumab (Average Max MFI) (human nectin-4 on cells [4]): 100%; Average Max MFI (human nectin-4 on cells [4]): 91000 MFI; EC50 (human nectin-4 on cells [4]): 0.05 nM |
| Ab1a ADC (Ab1a conjugated as in Formula XI, DAR of 8) (antibody, human IgG1, kappa, L234A L235A, V domains shown, camptothecin analog linker-payload of Formula XI on cysteine thiols after full reduction, DAR of 8 per antibody; positions not given, Antibody-drug conjugate of Ab1a; also called Ab1a (ADC column)) VH: QVQLVQSGAQVKKPGASVKVSCKASGYTFTGYYIHWVRQAPGQGLEWMGWINPNSGGTNYAQKFQGRVTMTRDTSISTAYMELSRLRSDDTAVYFCAREDWDFDYWGQGTLVTVSS VL: EIVLTQSPGTLSLSPGERATLSCRTSQSVSSSYLAWYQQKPGQAPRLLIYGASNRATDIPDRFSGSGSGTDFTLTINRLEPEDFAVYYCQQYGSSPITFGQGTRLEIKR | 150% | 2.3 nM | 0.0981 nM | 0.0729 nM | 142 nM | 0.0402 s⁻¹ | 283000 M⁻¹ s⁻¹ | 180 nM | 0.0453 s⁻¹ | 252000 M⁻¹ s⁻¹ | 83.9 nM | 0.026 s⁻¹ | 310000 M⁻¹ s⁻¹ | 72.5 nM | 0.0308 s⁻¹ | 424000 M⁻¹ s⁻¹ |  |  |  |  |
| Ab3 ADC (Ab3 conjugated as in Formula XI, DAR of 8) (antibody, human IgG1, kappa, L234A L235A, V domains shown, camptothecin analog linker-payload of Formula XI on cysteine thiols after full reduction, DAR of 8 per antibody; positions not given, Antibody-drug conjugate of Ab3; also called Ab3 (ADC column)) VH: EVQLVESGGGLVKPGGSLRLSCAASGFNLNHYNMNWVRQAPGKGLEWVSSVSSGGGFRYYADSVRGRFTISRDNAKNSLYLQMNSLRAEDTAVYYCARGAVFHDAFDIWGQGTLVTVSS VL: DIQLTQSPSFLSASVGDRVTITCRASQDISSYLAWYQQKPGKAPKLLIYVASTLQSGVPSRFSGSGSGTEFTLTISSLQPEDFATYYCQQINSYPFTFGQGTKVEIKR | 136% | 2.68 nM | 0.0553 nM | 0.0825 nM |  |  |  | 5.28 nM | 0.000903 s⁻¹ | 171000 M⁻¹ s⁻¹ | 0.986 nM | 0.000426 s⁻¹ | 432000 M⁻¹ s⁻¹ |  |  |  | 1.03 nM | 0.000437 s⁻¹ | 424000 M⁻¹ s⁻¹ |  |
| Ab5 ADC (Ab5 conjugated as in Formula XI, DAR of 8) (antibody, human IgG1, kappa, L234A L235A, V domains shown, camptothecin analog linker-payload of Formula XI on cysteine thiols after full reduction, DAR of 8 per antibody; positions not given, Antibody-drug conjugate of Ab5; also called Ab5 (ADC column)) VH: QVQLVQSGAEVKKPGASVKVSCKASGYTFTSYYVHWVRQAPGQGLEWMGIINPSIISTSYAQKFQARVTMTRDTSTSTVYMELSSLRSEDTAVYYCARGLNFDAFDIWGQGTLVTVSS VL: DIQLTQSPSFLSASVGDRVTITCRASQGISSYLAWYQQKPGKAPKLLIYAASTLQSGVPSRFSGSGSGTEFTLTISSLQPEDFATYYCQQLNNYPFTFGQGTKVEIKR | 112% | 2.8 nM | 0.0657 nM | 0.0994 nM |  |  |  | 31.3 nM | 0.0199 s⁻¹ | 636000 M⁻¹ s⁻¹ | 3.1 nM | 0.0033 s⁻¹ | 1.06e+06 M⁻¹ s⁻¹ |  |  |  | 3.94 nM | 0.00346 s⁻¹ | 878000 M⁻¹ s⁻¹ |  |
| Ab8 ADC (Ab8 conjugated as in Formula XI, DAR of 8) (antibody, human IgG1, lambda, L234A L235A, V domains shown, camptothecin analog linker-payload of Formula XI on cysteine thiols after full reduction, DAR of 8 per antibody; positions not given, Antibody-drug conjugate of Ab8; also called Ab8 (ADC column)) VH: QVQLVQSGAEVKKPGASVKVSCKASGYTFTSYYIHWVRQAPGQGLEWMGIINPISGRTSSAQKFQGRVTMTRDTSTSTVYMELSSLRSEDTAVYYCAKEGVGGELLRAFDIWGQGTLVTVSS VL: QSVLTQPPSVSEAPRQRVTISCSGSSSNIGNNAVNWYQQLPGKAPKLLIYYDDLLPSGVSDRFSGSKSGTSASLAISGLQSEDEADYYCAAWDDSLNGFVFGGGTKLTVLG | 125% | 2.48 nM | 0.0572 nM | 0.088 nM |  |  |  | 34.4 nM | 0.0165 s⁻¹ | 482000 M⁻¹ s⁻¹ | 42.1 nM | 0.0524 s⁻¹ | 1.25e+06 M⁻¹ s⁻¹ |  |  |  | 48.7 nM | 0.0338 s⁻¹ | 694000 M⁻¹ s⁻¹ |  |
| Ab7 ADC (Ab7 conjugated as in Formula XI, DAR of 8) (antibody, human IgG1, lambda, L234A L235A, V domains shown, camptothecin analog linker-payload of Formula XI on cysteine thiols after full reduction, DAR of 8 per antibody; positions not given, Antibody-drug conjugate of Ab7; also called Ab7 (ADC column)) VH: QVQLVQSGAEVKKPGASVKVSCKASGYTFTNYYMHWVRQAPGQGLEWMGIINPSSGSASYAQKFQGRVTMTRDTSTSTVYMELSSLRSEDTAVYYCAREGVGRDILQAFDIWGQGTLVTVSS VL: QSVLTQPPSVSEAPRQRVTISCSGSSSNIGNNAVNWYQQLPGKAPKLLIYYDDLLPSGVSDRFSGSKSGTSASLAISGLQSEDEADYYCAAWDDSLNGHVFGGGTKLTVLG | 126% | 2.61 nM | 0.0543 nM | 0.0801 nM | 41.2 nM | 0.0243 s⁻¹ | 591000 M⁻¹ s⁻¹ | 73.1 nM | 0.0296 s⁻¹ | 404000 M⁻¹ s⁻¹ | 39.2 nM | 0.0464 s⁻¹ | 1.18e+06 M⁻¹ s⁻¹ | 37.6 nM | 0.0212 s⁻¹ | 564000 M⁻¹ s⁻¹ |  |  |  |  |
